Laboratory results reported in WO2014027697A1 (dated 2014).
Residue numbers refer to the chain shown, from its start. *: point of attachment. Biotin = O=C1N[C@H]2[C@H](CS[C@H]2CCCCC(=O)*)N1; Ahx = NCCCCCC(=O)O

T1: synthetic peptide BAA658-PR1.2 (Streptococcus pneumoniae strain BAA-658, SMILES …)
T1 peptide: {Biotin-Ahx}-PEKPAEETPAPAPKPEQPA-NH2

T2: synthetic peptide BAA658-PR1 (Streptococcus pneumoniae strain BAA-658, SMILES …)
T2 peptide: {Biotin-Ahx}-PEKPAEETPAPAPKPEQ-NH2

T3: synthetic peptide BAA658-PR3 (Streptococcus pneumoniae strain BAA-658, SMILES …)
T3 peptide: {Biotin-Ahx}-EQPAEQPKPAPAPQP-NH2

T4: synthetic peptide BAA658-PR4 (Streptococcus pneumoniae strain BAA-658, SMILES …)
T4 peptide: {Biotin-Ahx}-KPAPAPQPAPAPKPE-NH2

T5: synthetic peptide BAA658-PR2 (Streptococcus pneumoniae strain BAA-658, SMILES …)
T5 peptide: {Biotin-Ahx}-TPAPAPKPEQPAEQPK-NH2

T6: recombinant PspA-TIGR4 with C-terminal His-tag (Streptococcus pneumoniae strain TIGR4)
T6 construct: Made in E. coli BL21(DE3), purified on Ni Sepharose; immobilized on a CM5 chip in the SPR assay; also called pelB-PspA(TIGR4)-His
T6 chain: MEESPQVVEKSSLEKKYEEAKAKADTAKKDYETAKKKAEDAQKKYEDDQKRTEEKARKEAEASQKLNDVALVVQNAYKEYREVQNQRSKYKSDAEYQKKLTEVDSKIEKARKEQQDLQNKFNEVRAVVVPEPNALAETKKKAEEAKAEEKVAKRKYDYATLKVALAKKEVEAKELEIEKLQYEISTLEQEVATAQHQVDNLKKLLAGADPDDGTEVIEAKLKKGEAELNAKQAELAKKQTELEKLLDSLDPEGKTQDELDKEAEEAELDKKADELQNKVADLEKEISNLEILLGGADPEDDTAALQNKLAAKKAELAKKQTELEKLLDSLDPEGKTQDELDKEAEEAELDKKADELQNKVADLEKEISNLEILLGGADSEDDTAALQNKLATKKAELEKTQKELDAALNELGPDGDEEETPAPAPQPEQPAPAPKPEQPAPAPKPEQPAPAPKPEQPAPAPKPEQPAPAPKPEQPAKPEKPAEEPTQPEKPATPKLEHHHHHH

T7: recombinant PspA-D39 with C-terminal His-tag (Streptococcus pneumoniae strain D39)
T7 construct: Made in E. coli BL21(DE3), purified on Ni Sepharose; immobilized on a CM5 chip in the SPR assay; also called pelB-PspA(D39)-His; PspA-6xHis (D39)
T7 chain: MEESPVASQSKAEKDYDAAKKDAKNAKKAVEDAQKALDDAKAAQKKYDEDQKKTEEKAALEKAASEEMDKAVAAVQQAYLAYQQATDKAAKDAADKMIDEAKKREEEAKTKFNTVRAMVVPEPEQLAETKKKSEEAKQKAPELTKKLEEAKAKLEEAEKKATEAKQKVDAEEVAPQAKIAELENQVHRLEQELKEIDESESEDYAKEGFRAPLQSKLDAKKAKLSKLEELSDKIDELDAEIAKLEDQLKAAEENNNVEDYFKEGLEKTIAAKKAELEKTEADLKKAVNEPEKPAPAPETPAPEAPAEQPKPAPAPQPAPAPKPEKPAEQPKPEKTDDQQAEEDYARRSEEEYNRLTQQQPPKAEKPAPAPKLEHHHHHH

B1: anti-PspA mouse monoclonal antibody 140G1 (antibody, V domains shown)
VH: QVQLKESGPGLVAPSQSLSITCTVSGFSLIGYGVNWVRQPPGKGLEWLGMIWGDGSTDYNLVLKSRLSINKDNSKSQVFLQMNSLQTDDTARYYCARGPQWGFAYWGQGTLVSVSA
VL: DIVMSQSPSSLAVSAGEKVTMSCKSSQSLLNSRTRKNYLAWYQQKPGQSPKLLIYWASTRESGVPDRFTGSGSGTDFTLTISSVQAEDLAVYYCKQSYNLPTFGGGTKLEIK
notes: Hybridoma antibody, mouse IgG1, kappa, raised against PspA-D39; also called clone 140G1
B2: anti-PspA mouse monoclonal antibody 140G11 (antibody, V domains shown)
VH: B1 VH with I30T, L61S, V62A, N70S, Q81K, S113T
VL: B1 VL
notes: Hybridoma antibody, mouse IgG2a, kappa, raised against PspA-D39; also called clone 140G11
B3: anti-PspA mouse monoclonal antibody 139G3 (antibody, V domains shown)
VH: EVQLQQSGTEVVKPGASVKLSCTASGFNIKDTYIHWVKKRPEQGLEWIGRIDPANGNTRYDPKFQGKATMTADTSSNTAYLQVSSLTSEDTAVYYCSRSDKFVWFAYWGQGTLVTVSA
VL: DIVLTQSPVSLTVYMGQRATISCRASQSVSTSSYNYIHWFQQKPGQPPKLLIKYASTLESGVPARFSGGGSGTDFTLNIHPVEEEDAATYSCQHSWEIPYTFGGGTKLEIK
notes: Hybridoma antibody, mouse IgG2a, kappa, raised against PspA-TIGR4; also called clone 139G3
B4: anti-PspA mouse monoclonal antibody 140H1 (antibody, V domains shown)
VH: QIQLVQSGPELKKPGETVRISCKASGYTFTTAGMQWVQKVPGKGLQWIGWINTHSGVPTYAEDFKGRIAFSLETSASAAYLQISNLKDEDTATYFCGRSGTGYAMDYWGQGTSVIVSS
VL: DTVMSQSPSSLVVSVGEKVSMSCKSSQNLLYTNNQKNYLAWYQQKPGQSPKLLIYWASTRESGVPDRFTGSGSGTDFTLTITSVKAEDLAVYYCQQYYTYPYTFGGGTKLEIK
notes: Hybridoma antibody, mouse IgG1, kappa, raised against PspA-D39; also called clone 140H1

What was measured:
[1] = molecular target: T8, MBP-PspA-BAA658-S2 (Streptococcus pneumoniae strain BAA-658); experiment: ELISA on plates coated with E. coli lysate holding the MBP-tagged fragment
T8 construct: Tested as cleared E. coli lysate coated on ELISA plates; also called MBP-BAA658(S2)

[2] = molecular target: T9, MBP-PspA-BAA658-S3 (Streptococcus pneumoniae strain BAA-658); experiment: as above
T9 construct: Tested as cleared E. coli lysate coated on ELISA plates; also called MBP-BAA658(S3)

[3] = molecular target: T10, MBP-PspA-BAA658-S1 (Streptococcus pneumoniae strain BAA-658); experiment: as above
T10 construct: Tested as cleared E. coli lysate coated on ELISA plates; also called MBP-BAA658(S1)

[4] = molecular target: T1, synthetic peptide BAA658-PR1.2; experiment: ELISA, biotinylated peptide on NeutrAvidin plates
[5] = molecular target: T2, synthetic peptide BAA658-PR1; experiment: ELISA, biotinylated peptide on NeutrAvidin plates
[6] = molecular target: T3, synthetic peptide BAA658-PR3; experiment: ELISA, biotinylated peptide on NeutrAvidin plates
[7] = molecular target: T4, synthetic peptide BAA658-PR4; experiment: ELISA, biotinylated peptide on NeutrAvidin plates
[8] = molecular target: T5, synthetic peptide BAA658-PR2; experiment: ELISA, biotinylated peptide on NeutrAvidin plates
[9] = molecular target: T11, MBP-PspA-BAA658-FL (Streptococcus pneumoniae strain BAA-658); experiment: ELISA on plates coated with E. coli lysate holding the MBP-tagged protein, antibody at 1 μg/mL
T11 construct: Tested as cleared E. coli lysate coated on ELISA plates; also called full BAA-658 peptide; strain BAA-658 FL

[10] = molecular target: T12, MBP-PspA-BAA658-S4 (Streptococcus pneumoniae strain BAA-658); experiment: ELISA on plates coated with E. coli lysate holding the MBP-tagged fragment, antibody at 1 μg/mL
T12 construct: Tested as cleared E. coli lysate coated on ELISA plates; also called MBP-BAA658(S4)

[11] = molecular target: T1, synthetic peptide BAA658-PR1.2; experiment: ELISA, biotinylated peptide on NeutrAvidin plates, antibody at 1 μg/mL
[12] = molecular target: T5, synthetic peptide BAA658-PR2; experiment: as above
[13] = molecular target: T9, MBP-PspA-BAA658-S3; experiment: ELISA on plates coated with E. coli lysate holding the MBP-tagged fragment, antibody at 1 μg/mL
[14] = molecular target: T6, recombinant PspA-TIGR4 with C-terminal …; experiment: SPR, Biacore 3000, PspA immobilized on CM5 chip, antibody as analyte, bivalent binding model (KD1 = kd1/ka1)
[15] = molecular target: recombinant PspA-BAA658 (Streptococcus pneumoniae strain BAA-658); experiment: as above
[16] = molecular target: T7, recombinant PspA-D39 with C-terminal …; experiment: as above
[17] = molecular target: T3, synthetic peptide BAA658-PR3; experiment: ELISA, biotinylated peptide on NeutrAvidin plates, antibody at 1 μg/mL
[18] = molecular target: T4, synthetic peptide BAA658-PR4; experiment: as above

Binder | binding result [1] | binding result [2] | binding result [3] | binding result [4] | binding result [5] | binding result [6] | binding result [7] | binding result [8] | binding result [9] | binding result [10] | binding result [11] | binding result [12] | binding result [13] | Kd [14] [nM] | Kd [15] [nM] | Kd [16] [nM] | binding result [17] | binding result [18]
B1 | no binding (tested: 1 μg/mL) | no binding (tested: 1 μg/mL) | no binding (tested: 1 μg/mL) | no binding (tested: 1 μg/mL) | no binding (tested: 1 μg/mL) | no binding (tested: 1 μg/mL) | no binding (tested: 1 μg/mL) | no binding (tested: 1 μg/mL) | binds | binds | – | – | – | – | – | – | – | –
B2 | no binding (tested: 1 μg/mL) | no binding (tested: 1 μg/mL) | no binding (tested: 1 μg/mL) | no binding (tested: 1 μg/mL) | no binding (tested: 1 μg/mL) | no binding (tested: 1 μg/mL) | no binding (tested: 1 μg/mL) | no binding (tested: 1 μg/mL) | – | – | – | – | – | – | – | – | – | –
B3 | – | – | – | – | – | – | – | – | binds | binds | binds | binds | binds | – | – | – | – | –
B4 | – | – | – | – | – | – | – | – | binds | binds | – | – | binds | < 100 | < 100 | < 100 | binds | binds
